Patent US11434289B2, “Anti-GPR20 antibody and anti-GPR20 antibody-drug conjugate” (DAIICHI SANKYO COMPANY, LIMITED, priority 2017, dated 2022)

Biological target: T1, human GPR20 (Homo sapiens, UniProt Q99678)
T1 construct: expressed in transfected cells; host or cells: 293T cells, transient, Lipofectamine 2000
Experiment: Human GPR20-binding antibody screening by flow cytometry (hybridoma culture supernatants, transfected 293T cells)
Settings: hybridoma culture supernatant; 293T cells transfected with pcDNA3.1-hGPR20 vs control pcDNA3.1; FIG. 18
Description: 293T cells were seeded in a 225-cm^2 flask (Sumitomo Bakelite Co., Ltd.) at 5×10^4 cells/cm^2, and the cells were then cultured overnight under conditions of 37° C. and 5% CO2 in DMEM medium supplemented with 10% FBS. pcDNA3.1-hGPR20 or pcDNA3.1 as a negative control was introduced into the 293T cells using Lipofectamine 2000, and the cells were further cultured overnight under conditions of 37° C. and 5% CO2. The 293T cells transfected with each expression vector were treated with TrypLE Express (Life Technologies Corp.), and the cells were washed with DMEM supplemented with 10% FBS, and then suspended in PBS supplemented with 5% FBS. The obtained cell suspension was used in flow cytometry analysis.
The binding specificity to human GPR20 of an antibody produced from hybridomas that had been determined to be positive by Cell-ELISA in Example 1)-4-2 was further confirmed by flow cytometry. The suspension of the transiently expressing 293T cells prepared in Example 1)-5-1 was centrifuged, and a supernatant was then removed. Thereafter, the cells were suspended by the addition of the culture supernatant from each hybridoma. The cells were left standing at 4° C. for 1 hour. The cells were washed twice with PBS supplemented with 5% FBS, and thereafter, the cells were suspended by the addition of Anti-Rat IgG FITC conjugate (Sigma-Aldrich Co. LLC) that had been 500-fold diluted with PBS supplemented with 5% FBS. […] The data was analyzed using Flowjo (Tree Star, Inc.). After dead cells were removed from analysis by gating out 7-aminoactinomycin D-positive cells, a histogram of the FITC fluorescence intensity of live cells was generated. Hybridomas producing human GPR20-binding antibodies (178 clones) were selected based on results where the histogram for the antibody shifted to the strong fluorescence intensity side in the 293T cells transfected with pcDNA3.1-hGPR20 compared with the 293T cells transfected with the control pcDNA3.1. […] The abscissa of FIG. 18 depicts clone No., and the ordinate thereof depicts the amount of the antibody bound based on MFI (mean fluorescence intensity).

T1 sequence (Q99678 whole entry): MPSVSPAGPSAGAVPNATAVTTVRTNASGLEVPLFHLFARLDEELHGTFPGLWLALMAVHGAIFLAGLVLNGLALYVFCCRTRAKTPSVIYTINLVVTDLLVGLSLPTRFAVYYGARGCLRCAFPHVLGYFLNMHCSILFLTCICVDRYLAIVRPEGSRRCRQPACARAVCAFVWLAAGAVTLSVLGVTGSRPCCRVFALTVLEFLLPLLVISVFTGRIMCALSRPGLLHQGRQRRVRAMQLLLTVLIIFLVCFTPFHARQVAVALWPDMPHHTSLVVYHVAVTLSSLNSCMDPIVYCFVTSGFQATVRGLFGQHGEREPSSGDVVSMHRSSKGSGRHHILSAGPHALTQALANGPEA

B1: 04-079: rat anti-human GPR20 antibody; heavy chain SEQ ID NO: 12, light chain SEQ ID NO: 17 (antibody, listed as Rattus norvegicus)
heavy: MEWNWVFLFLLSVTAVVHSQVQLQQSGAELAKPGSSVKISCKASGYTFTSYYITWIKQTTGQGLKYIGYINPGSGHTNYNEKFKGKATLTVDKSSSTAFMQLSSLTPDDSAVYYCARGAGGFLRIISKFDYWGQGVMVTVSSAQTTAPSVYPLAPGCGDTTSSTVTLGCLVKGYFPEPVTVTWNSGALSSDVHTFPAVLQSGLYTLTSSVTSSTWPSQTVTCNVAHPASSTKVDKKVERRNGGIGHKCPTCPTCHKCPVPELLGGPSVFIFPPKPKDILLISQNAKVTCVVVDVSEEEPDVQFSWFVNNVEVHTAQTQPREEQYNSTFRVVSALPIQHQDWMSGKEFKCKVNNKALPSPIEKTISKPKGLVRKPQVYVMGPPTEQLTEQTVSLTCLTSGFLPNDIGVEWTSNGHIEKNYKNTEPVMDSDGSFFMYSKLNVERSRWDSRAPFVCSVVHEGLHNHHVEKSISRPPGK
light: METDRLLLWVLLLWVPGSTGDTVLTQSPALAVSLGQRVTISCRASKSVSTYMHWYQQRSGQQPKLLIYSASNLESGVPSRFSGSGSGTDFTLTIDPVKADDITNYYCQQSNELPYTFGAGTKLELKRADAAPTVSIFPPSTEQLATGGASVVCLMNNFYPRDISVKWKIDGTERRDGVLDSVTDQDSKDSTYSMSSTLSLTKADYESHNLYTCEVVHKTSSSPVVKSFNRNEC
modifications: SIGNAL (1)..(19); SIGNAL (1)..(20)
- binding to human GPR20 (amount of the antibody bound based on MFI): specifically binding to human GPR20

B2: 04-046: rat anti-human GPR20 antibody; heavy chain SEQ ID NO: 2, light chain SEQ ID NO: 7 (antibody, listed as Rattus norvegicus)
heavy: MEWNWVFLFLLSVTAEVHSQVQLQQSGAELAKPGSSVKISCKASGYTFTSYYISWIKQTTGQGLKYIGFINPGSGHTNYNEKFKGKATLTVDKSSSTAFMQLSSLTPDDSAIYYCARGAGGFLRIITKFDYWGQGVMVTVSSAQTTAPSVYPLAPGCGDTTSSTVTLGCLVKGYFPEPVTVTWNSGALSSDVHTFPAVLQSGLYTLTSSVTSSTWPSQTVTCNVAHPASSTKVDKKVERRNGGIGHKCPTCPTCHKCPVPELLGGPSVFIFPPKPKDILLISQNAKVTCVVVDVSEEEPDVQFSWFVNNVEVHTAQTQPREEQYNSTFRVVSALPIQHQDWMSGKEFKCKVNNKALPSPIEKTISKPKGLVRKPQVYVMGPPTEQLTEQTVSLTCLTSGFLPNDIGVEWTSNGHIEKNYKNTEPVMDSDGSFFMYSKLNVERSRWDSRAPFVCSVVHEGLHNHHVEKSISRPPGK
light: METDRLLLWVLLLWVPGSTGDTVLTQSPALAVSLGQRVTISCRASKSVSTYIHWYQQRSGQQPKLLIYSASNLESGVPSRFSGSGSGTDFTLTIDPVEPDDIANYYCQQINELPYTFGAGTKLELKRADAAPTVSIFPPSTEQLATGGASVVCLMNNFYPRDISVKWKIDGTERRDGVLDSVTDQDSKDSTYSMSSTLSLTKADYESHNLYTCEVVHKTSSSPVVKSFNRNEC
modifications: SIGNAL (1)..(19); SIGNAL (1)..(20)
- binding to human GPR20 (amount of the antibody bound based on MFI): specifically binding to human GPR20

B3: 04-126: rat anti-human GPR20 antibody; heavy chain SEQ ID NO: 22, light chain SEQ ID NO: 27 (antibody, listed as Rattus norvegicus)
heavy: MEWNWVFLFLLSVTAEVHSQVQLRQSGAELAKPGSSVKISCKASGYTFTSYYIIWMKQTAGQGLQYVGYINPGSGHTNYNEKFKGKATLTVDKSSSTAFMQLSSLTPDDSAVYYCARGTGGFLRIISKFDYWGQGVMVTVSSAQTTAPSVYPLAPGCGDTTSSTVTLGCLVKGYFPEPVTVTWNSGALSSDVHTFPAVLQSGLYTLTSSVTSSTWPSQTVTCNVAHPASSTKVDKKVERRNGGIGHKCPTCPTCHKCPVPELLGGPSVFIFPPKPKDILLISQNAKVTCVVVDVSEEEPDVQFSWFVNNVEVHTAQTQPREEQYNSTFRVVSALPIQHQDWMSGKEFKCKVNNKALPSPIEKTISKPKGLVRKPQVYVMGPPTEQLTEQTVSLTCLTSGFLPNDIGVEWTSNGHIEKNYKNTEPVMDSDGSFFMYSKLNVERSRWDSRAPFVCSVVHEGLHNHHVEKSISRPPGK
light: METDRLLLWVLLLWVPGSTGDTVLTQSPALAVSLGQRVTISCRASKSVSTYMHWYQQRSGQQPKLLIYSASTLESGVPSRFSGSGSGTDFTLTIDPVEADDIANYYCQQSNELPYTFGAGTKLELKRADAAPTVSIFPPSTEQLATGGASVVCLMNNFYPRDISVKWKIDGTERRDGVLDSVTDQDSKDSTYSMSSTLSLTKADYESHNLYTCEVVHKTSSSPVVKSFNRNEC
modifications: SIGNAL (1)..(19); SIGNAL (1)..(20)
- binding to human GPR20 (amount of the antibody bound based on MFI): specifically binding to human GPR20
